In publication PMC4890318:

Molecular target: wild-type human dopamine transporter (human) (UniProt Q01959)
UniProt Q01959, sequence (Q01959 whole entry): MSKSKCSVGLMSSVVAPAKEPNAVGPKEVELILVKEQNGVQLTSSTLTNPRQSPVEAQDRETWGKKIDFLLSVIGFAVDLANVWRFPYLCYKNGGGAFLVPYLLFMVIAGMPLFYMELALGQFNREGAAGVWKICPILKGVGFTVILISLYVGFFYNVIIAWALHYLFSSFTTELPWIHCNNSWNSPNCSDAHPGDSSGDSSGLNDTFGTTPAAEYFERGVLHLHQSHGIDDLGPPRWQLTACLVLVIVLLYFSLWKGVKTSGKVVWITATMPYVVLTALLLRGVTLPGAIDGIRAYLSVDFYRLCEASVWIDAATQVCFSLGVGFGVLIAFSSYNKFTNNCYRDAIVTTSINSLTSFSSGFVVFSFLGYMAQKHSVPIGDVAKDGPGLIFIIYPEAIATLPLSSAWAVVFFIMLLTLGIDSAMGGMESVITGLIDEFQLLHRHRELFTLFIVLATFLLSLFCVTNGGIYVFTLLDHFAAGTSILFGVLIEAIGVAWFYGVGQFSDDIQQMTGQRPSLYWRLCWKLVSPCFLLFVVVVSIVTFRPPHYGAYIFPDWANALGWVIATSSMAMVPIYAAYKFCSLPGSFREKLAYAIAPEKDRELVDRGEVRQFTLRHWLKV

With “recombinant HIV-1 Tat 1-86 (from UniProt P04608 1-86) (natural protein)” as the substance, how does the decrease of [3H]DA uptake in PC12 cells transfected with WT hDAT after 20 min preincubation with 140 nM Tat1-86, against control without Tat read?
The decrease of [3H]DA uptake in PC12 cells transfected with WT hDAT after 20 min preincubation with 140 nM Tat1-86, against control without Tat was 35%.
